Each block holds one binder with its values, some of them ahead of it.
Experiments:
[1] = target: T1, unphosphorylated Aurora-A 1-403 (UniProt O14965 1-403); assay: pull-down
T1 sequence: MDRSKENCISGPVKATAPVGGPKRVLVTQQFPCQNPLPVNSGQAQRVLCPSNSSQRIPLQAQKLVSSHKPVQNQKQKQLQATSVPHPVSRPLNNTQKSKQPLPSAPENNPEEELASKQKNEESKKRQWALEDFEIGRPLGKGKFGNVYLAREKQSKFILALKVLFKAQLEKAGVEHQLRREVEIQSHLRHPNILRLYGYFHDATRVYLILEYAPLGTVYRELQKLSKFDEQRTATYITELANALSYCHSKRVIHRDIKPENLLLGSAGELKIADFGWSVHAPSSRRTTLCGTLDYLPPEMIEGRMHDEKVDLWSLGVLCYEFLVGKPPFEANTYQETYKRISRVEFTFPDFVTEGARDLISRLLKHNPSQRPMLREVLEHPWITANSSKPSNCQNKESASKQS

Aurora-A kinase domain = target: T2, Aurora-A kinase domain (UniProt O14965 122-403, C290A;K339C;C393A); assay: EMSA
T2 sequence: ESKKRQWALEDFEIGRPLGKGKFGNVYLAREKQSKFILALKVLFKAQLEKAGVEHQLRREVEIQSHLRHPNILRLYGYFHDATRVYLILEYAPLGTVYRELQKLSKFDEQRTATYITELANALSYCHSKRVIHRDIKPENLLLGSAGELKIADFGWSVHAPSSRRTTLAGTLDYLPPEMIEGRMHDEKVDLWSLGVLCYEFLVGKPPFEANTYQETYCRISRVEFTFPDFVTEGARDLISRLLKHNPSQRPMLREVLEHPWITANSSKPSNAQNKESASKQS

[2] = target: T3, Aurora-A 1-403, unphosphorylated (UniProt O14965 1-403); assay: pull-down
T3 sequence: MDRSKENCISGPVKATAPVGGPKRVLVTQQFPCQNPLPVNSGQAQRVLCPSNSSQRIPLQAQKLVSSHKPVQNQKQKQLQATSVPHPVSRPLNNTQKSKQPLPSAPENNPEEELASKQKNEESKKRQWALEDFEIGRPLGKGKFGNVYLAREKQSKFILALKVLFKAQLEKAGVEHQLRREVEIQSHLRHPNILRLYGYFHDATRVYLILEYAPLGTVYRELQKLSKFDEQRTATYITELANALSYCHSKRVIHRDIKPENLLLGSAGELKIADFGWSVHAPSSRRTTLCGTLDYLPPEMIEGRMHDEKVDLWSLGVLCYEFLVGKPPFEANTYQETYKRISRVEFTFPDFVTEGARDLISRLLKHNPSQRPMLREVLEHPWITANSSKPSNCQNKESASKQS

binding result [1]: binds
B1: 3xFLAG-MYCN 1-137 (domain or fragment)
chain: MPSCSTSTMPGMICKNPDLEFDSLQPCFYPDEDDFYFGGPDSTPPGEDIWKKFELLPTPPLSPSRGFAEHSSEPPSWVTEMLLENELWGSPAEEDAFGLGGLGGLTPNPVILQDCMWSGFSAREKLERAVSEKLQHG

B2: UGhigh RNA, Cy5 (ssRNA)
RNA: UGCUGGGAUGGUCAUGGUGGGUGACCCUGGGAUGGCCGCGGUGGGUGACCCUGGAAUGGU
binding result (Aurora-A kinase domain): binds

B3: UGhigh RNA, biotin (ssRNA)
RNA: UGCUGGGAUGGUCAUGGUGGGUGACCCUGGGAUGGCCGCGGUGGGUGACCCUGGAAUGGU
binding result [2]: binds

— doi:10.1101/2025.01.15.633177 (bioRxiv, 2025)
